What was measured:
[1] = system: T1, O=C1NC(=O)C(Cc2c[nH]c3ccccc23)N1; assay: purified protein; format: biochemical, Geobacillus stearothermophilus; conditions: 0.1 M MOPS pH 8.0, 0.5 mM MnSO4, temperature of kinetics not stated (activity assays at 60 °C)
T1 construct: recombinant from pET-Hyd in E. coli BL21(DE3); 52 kDa; heat-treated, ultrafiltered, desalted

O=C1CCNC(=O)N1 = system: T2, O=C1CCNC(=O)N1; assay: purified protein; format: biochemical, Geobacillus stearothermophilus; conditions: 0.1 M MOPS pH 8.0, 0.5 mM MnSO4, temperature of kinetics not stated (activity assays at 60 °C)
T2 construct: recombinant from pET-Hyd in E. coli BL21(DE3); 52 kDa; heat-treated, ultrafiltered, desalted

Work on “D-hydantoinase (dihydropyrimidinase) of G. stearothermophilus ATCC 31783 (Geobacillus stearothermophilus; W287A)” yielded a Km [1] of 1660 ± 850 µM, a kcat [1] of 6.83 ± 0.97 s⁻¹ and a kcat/Km [1] of 4130 ± 1630 M⁻¹ s⁻¹. It also gave a Km (O=C1CCNC(=O)N1) of 430 ± 130 µM, a kcat (O=C1CCNC(=O)N1) of 2.76 ± 0.17 s⁻¹ and a kcat/Km (O=C1CCNC(=O)N1) of 6530 ± 1830 M⁻¹ s⁻¹.
“D-hydantoinase (dihydropyrimidinase) of G. stearothermophilus ATCC 31783 (Geobacillus stearothermophilus; F159A/W287A)” gave a Km [1] of 4300 ± 400 µM, a kcat [1] of 12.5 ± 0.50 s⁻¹ and a kcat/Km [1] of 2900 ± 170 M⁻¹ s⁻¹. The Km (O=C1CCNC(=O)N1) was 5610 ± 2320 µM, the kcat (O=C1CCNC(=O)N1) was 6.16 ± 1 s⁻¹ and the kcat/Km (O=C1CCNC(=O)N1) was 1100 ± 300 M⁻¹ s⁻¹.
For “D-hydantoinase (dihydropyrimidinase) of G. stearothermophilus ATCC 31783 (Geobacillus stearothermophilus)”, the Km (O=C1CCNC(=O)N1) was 970 ± 220 µM, the kcat (O=C1CCNC(=O)N1) was 11.2 ± 0.7 s⁻¹ and the kcat/Km (O=C1CCNC(=O)N1) was 11300 ± 2200 M⁻¹ s⁻¹.
Substance “D-hydantoinase (dihydropyrimidinase) of G. stearothermophilus ATCC 31783 (Geobacillus stearothermophilus; I190A)” has a Km (O=C1CCNC(=O)N1) of 1120 ± 610 µM, a kcat (O=C1CCNC(=O)N1) of 7.99 ± 0.9 s⁻¹ and a kcat/Km (O=C1CCNC(=O)N1) of 7090 ± 3200 M⁻¹ s⁻¹.
“D-hydantoinase (dihydropyrimidinase) of G. stearothermophilus ATCC 31783 (Geobacillus stearothermophilus; F159A)” showed a Km [1] of 600 ± 580 µM, a kcat [1] of 4.16 ± 0.60 s⁻¹ and a kcat/Km [1] of 6890 ± 5830 M⁻¹ s⁻¹. It also gave a Km (O=C1CCNC(=O)N1) of 2890 ± 1270 µM, a kcat (O=C1CCNC(=O)N1) of 21.8 ± 2.6 s⁻¹ and a kcat/Km (O=C1CCNC(=O)N1) of 7530 ± 2500 M⁻¹ s⁻¹.

Source: article PMC7175128, “Rational Engineering of the Substrate Specificity of a Thermostable D-Hydantoinase (Dihydropyrimidinase)” (High-Throughput, 2020)
